# Results as given in US20140329761A1, “PREVENTION AND TREATMENT OF ACUTE INFLAMMATORY CONDITIONS” (The University of Queensland, priority 2011, published 2014).
# Where no end group is shown, it is not given here. [ ]: non-standard residue; d: D form. Cha = N[C@@H](CC1CCCCC1)C(=O)O
# Columns and labels:
# C3aR [1] = target: T1, C3aR (Homo sapiens, UniProt Q16581); settings: cited from earlier work
# T1 sequence (Q16581 1-482): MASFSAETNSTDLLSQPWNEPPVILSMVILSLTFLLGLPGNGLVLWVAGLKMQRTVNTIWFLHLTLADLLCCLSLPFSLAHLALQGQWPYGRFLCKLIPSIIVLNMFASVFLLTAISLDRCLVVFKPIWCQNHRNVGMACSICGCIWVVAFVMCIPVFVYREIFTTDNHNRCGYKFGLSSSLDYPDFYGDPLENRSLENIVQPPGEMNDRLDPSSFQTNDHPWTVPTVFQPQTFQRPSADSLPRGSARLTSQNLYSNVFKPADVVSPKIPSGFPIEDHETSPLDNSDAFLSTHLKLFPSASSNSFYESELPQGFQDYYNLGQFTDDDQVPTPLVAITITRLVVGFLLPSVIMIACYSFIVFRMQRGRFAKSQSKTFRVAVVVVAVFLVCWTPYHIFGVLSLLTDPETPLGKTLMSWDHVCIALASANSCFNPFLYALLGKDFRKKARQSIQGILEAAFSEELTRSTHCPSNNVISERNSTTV
# C3aR [2] = target: T2, C3aR (Mus musculus, UniProt O09047); assay: Mouse intestinal I/R injury: alkaline phosphatase (ALP) measurement; format: in vivo; settings: WT mice, I/R induced intestinal injury, 0.01 mg/kg i.v. pre-treatment, compared with vehicle pre-treated WT mice
# T2 construct: endogenous in cells; host or cells: live wild-type C57BL/6 mice (in vivo; receptor on neutrophils and other bone-marrow-derived cells)
# T2 sequence (O09047 1-477): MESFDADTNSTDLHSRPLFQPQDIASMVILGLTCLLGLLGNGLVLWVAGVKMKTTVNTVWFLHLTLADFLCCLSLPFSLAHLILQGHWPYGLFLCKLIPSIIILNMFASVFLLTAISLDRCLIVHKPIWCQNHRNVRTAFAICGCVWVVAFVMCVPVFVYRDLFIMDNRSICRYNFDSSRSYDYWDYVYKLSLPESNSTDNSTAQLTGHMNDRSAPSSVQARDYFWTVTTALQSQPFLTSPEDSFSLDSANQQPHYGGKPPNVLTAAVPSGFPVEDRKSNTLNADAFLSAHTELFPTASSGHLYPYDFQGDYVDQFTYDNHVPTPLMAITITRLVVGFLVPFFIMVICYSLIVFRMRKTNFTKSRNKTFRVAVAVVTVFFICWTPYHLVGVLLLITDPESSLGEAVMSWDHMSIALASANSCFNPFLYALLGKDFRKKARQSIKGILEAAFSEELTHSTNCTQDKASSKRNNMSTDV
# Experimental: (§1) Male C57BL/6 or C3aR knockout mice were fasted for around 12 hours before experimentation. Mice were anesthetized with 2% isoflurane and oxygen at 2 L/minute throughout the experiment. […] An immediate check of complete shut-off of the blood supply to the small intestine was confirmed visually (ischemia). The abdomen was then covered with moist gauze. After thirty minutes of the ischemia episode, the ligature was removed and restoration of blood supply to the intestine was confirmed visually (reperfusion). The midline laparotomy incision was then closed. Mice were administrated with saline (100 μL) intraperitoneally every hour to compensate for fluid loss. The same procedure was performed on sham-operated mice including a loop of ligature around their arteries; however the arteries were not occluded. After two and half hours of the reperfusion episode, mice were sacrificed, and tissues and blood were harvested. Their small intestines (0.5-1 cm pieces) were snap-frozen in liquid nitrogen and stored at −80° C. for later assays. […]
# Intestinal ALP concentrations were measured according to the manufacturer's instructions (ALP reagents; Thermo Scientific, USA). […] The absorbance at 405 was immediately measured in a kinetic manner for 10 minutes at 37° C. The results were calculated as follows: Activity in U/L=ΔAbs/min×Factor.
# C3aR [3] = assay: Mouse intestinal I/R injury: circulating neutrophils (white blood cell differentials); format: in vivo, mice; settings: C3aR-/- mice, gut ischemia/reperfusion, 0.01 mg/kg i.v. 10 minutes prior to ischemia
# Experimental: as §1
# (§2) To determine white blood cell populations, cell differentials were employed using blood smears and The Kwik-Diff Staining System (Thermo Shandon). […] Samples were counted in triplicate, with a total 100 white blood cells per slide counted, and the number of neutrophils expressed as a percentage of total white blood cells.
# C3aR [4] = target: T2, C3aR; assay: as above; format: in vivo, mice; settings: WT mice, I/R induced intestinal injury, 0.01 mg/kg i.v. 10 minutes prior to ischemia, compared with vehicle pre-treated WT mice
# Experimental: as §1, §2
# C3aR [5] = target: T2, C3aR; assay: Mouse intestinal I/R injury: plasma cytokines (Cytometric Bead Array); format: in vivo; settings: WT ischemia/reperfusion mice, 2.5 hours after ischemia
# Experimental: (§3) Male C57BL/6 or C3aR knockout mice were fasted for around 12 hours before experimentation. Mice were anesthetized with 2% isoflurane and oxygen at 2 L/minute throughout the experiment. […] An immediate check of complete shut-off of the blood supply to the small intestine was confirmed visually (ischemia). The abdomen was then covered with moist gauze. After thirty minutes of the ischemia episode, the ligature was removed and restoration of blood supply to the intestine was confirmed visually (reperfusion). The midline laparotomy incision was then closed. Mice were administrated with saline (100 μL) intraperitoneally every hour to compensate for fluid loss. The same procedure was performed on sham-operated mice including a loop of ligature around their arteries; however the arteries were not occluded. After two and half hours of the reperfusion episode, mice were sacrificed, and tissues and blood were harvested. Their small intestines (0.5-1 cm pieces) were snap-frozen in liquid nitrogen and stored at −80° C. for later assays. […] The blood was centrifuge at 14,000 rpm for 15 min at 4° C., and the resulting plasma stored at −80° C. […]
# Cytokines were measured using a Cytometric Bead Array from Becton Dickinson (flow cytometry that allows for the quantification of multiple cytokines simultaneously), using plasma isolated from mice at termination.
# C3aR [6] = target: T2, C3aR; assay: Mouse intestinal I/R injury: myeloperoxidase (MPO) activity of small intestine; format: in vivo; settings: WT mice, 0.01 mg/kg i.v. pre-treatment, compared with vehicle pre-treated WT mice
# Experimental: as §3
# Snap-frozen ileum (1 cm), excised at sacrifice, was briefly cleaned with ice-cold PBS and weighed. […] MPO activity was assayed spectrophotometrically at the absorbance 460 nm. […] The absorbance was measured using a Rainbow 96-well plate reader after 20 minutes.
# C3aR [7] = target: T2, C3aR; assay: Mouse intestinal I/R injury: histopathology of small intestine; format: in vivo; settings: WT mice, 0.01 mg/kg i.v. pre-treatment, compared with vehicle pre-treated WT mice; scale 0-5
# Experimental: as §1
# At sacrifice, a section of ileum (0.5 cm) was removed and fixed in 4% paraformaldehyde in phosphate buffered saline (PBS) for at least 72 hours. […] Histological assessment was carried out in a blinded fashion using light microscopy at 40× magnification, and scored for severity on a scale of 0-5. […]
# C3aR [8] = target: T2, C3aR; assay: Mouse spinal cord injury (SCI): circulating white blood cell populations and total WBC counts; format: in vivo; settings: SCI mice, 4 doses of 1 mg/kg s.c. every 6 hours, 24 hours post-injury
# Experimental: Experimental mice were anaesthetized using Zoletil (50 mg/kg) and xylazine (10 mg/kg). Next, a dorsal laminectomy was performed on the 9th thoracic vertebra to expose the underlying spinal cord. Mice were then subjected to a force-controlled, moderate-severe (70 kdyne) contusion injury of the spinal cord using the Infinite Horizon impactor device (Ghasemlou et al., 2005). Post-operatively, mice were given antibiotics for 5 days (Gentamycin; 1 mg/kg) as well as a single dose of Hartmann's solution (1 ml) to prevent dehydration and to compensate for loss of bodily fluids. Bladders of spinal cord-injured mice were voided manually twice daily. […]
# Blood samples were collected from experimental animals either via retro-orbital eye bleeds or heart punctures at the time of sacrifice. […] Next, the number of white blood cells per set sample volume was determined using the Countess automated cell counter (Invitrogen) as per manufacturer's instructions. […]
# These experiments were performed to test whether C3aR can be used as a therapeutic target to improve the outcome from neurotraumatic events (neuronal death and axonal degeneration at sites of SCI are inevitably linked to neuroinflammation). […] The effect of EP67 treatment on circulating white blood cell populations after SCI relative to saline-treated controls was assessed via flow cytometry and total WBC counts as detailed above.
substance,measurement,setting,value
FLTChaAR (FLT[Cha]AR),functional antagonism at C3aR,"C3aR [1]; literature (Scully et al. 2010), human C3aR",functional antagonist of both C3a and the short peptide agonist FWTLAR
WWGKKYRASKLGLAR (A synthetic EP141),plasma ALP levels,C3aR [2],significantly (P<0.02) reduced
same,effect on circulating neutrophils (neutrophil mobilization) in C3aR knockout mice,C3aR [3],inactive
same,percentage of circulating neutrophils,C3aR [4],significantly (P<0.02) lower
same,IL-6 levels in plasma,C3aR [5],no significant change
same,I/R induced MPO activity of the small intestine,C3aR [6],significantly (P<0.05) lower
same,I/R induced intestinal injury (histopathological scores of the small intestine),C3aR [7],significantly reduced
same,C3aR agonist activity,C3aR [1]; literature (Ember et al. 1991; Scully et al. 2010; Denonne et al. 2007),highly potent and selective C3aR agonist
YSFKDMP(MeL)aR [EP67],reduction in the blood granulocyte number,C3aR [8]; compared to vehicle-treated control mice with SCI,30%
same,total WBC count,"C3aR [8]; relative to vehicle-treated controls, p=0.07, data not shown",trend towards a decrease
